Assay results reported in patent US20230167182A1 (BIOSION, published 2023).
Residue numbers refer to the chain shown, from its start. One block for each binder: values may come before it.

Assays:
[1] = target: T1, human IL6R-Fc protein (human, biotin-labeled in the ELISAs (sites not given)); assay: capture ELISA: antibody captured on anti-IgG F(ab')2 coated plate, then biotin-labeled human IL6R-Fc, streptavidin-HRP
T1 construct: In house made; also called biotin-labeled human IL6R-Fc protein
Description: For the capture ELISA, 96-well micro plates were coated with 2 μg/ml AffiniPure Goat Anti-Mouse IgG, F(ab′)₂ fragment specific (Jackson ImmunoResearch Laboratories, Inc., Cat #115-005-072) in PBS, 100 μl/well, and incubated for 2 hours at 37° C. Plates were washed once with wash buffer (PBS+0.05% v/v Tween-20, PBST) and then blocked with 200 μl/well blocking buffer (5% w/v non-fatty milk in PBST) overnight at 4° C. […] Plates containing captured anti-IL6R antibodies were incubated with biotin-labeled human IL6R-Fc protein (prepared in house, SEQ ID NO: 43, 39.5 ng/ml in 2.5% w/v non-fatty milk in PBST, 100 μl/well) for 40 minutes at 37° C., washed 4 times, and incubated with streptavidin conjugated HRP (1:10000 dilution in PBST, Jackson ImmunoResearch Laboratories, Inc., Cat #016-030-084, 100 μl/well) for 40 minutes at 37° C. After a final wash, plates were incubated with 100 μl/well ELISA substrate TMB (InnoReagents, Cat #TMB-S-002). The reaction was stopped 3-10 minutes later at room temperature with 50 μl/well 1M H₂SO₄, and the absorbance of each well was read on a microplate reader using dual wavelength mode at 450 nm for TMB and 630 nm as the reference wavelength. Then the OD (450-630) values were plotted against antibody concentration. Data was analyzed using Graphpad Prism software and EC₅₀ values were reported.
For the capture ELISA, AffiniPure Goat Anti-Human IgG, F(ab′)₂ fragment specific (Jackson Immuno Research, Cat #109-005-097) was used instead of AffiniPure Goat Anti-Mouse IgG, F(ab′)₂ fragment specific, 100 μl/well.

[2] = target: T1, human IL6R-Fc protein; assay: benchmark blocking ELISA: antibody pre-incubated with biotin-labeled human IL6R-Fc, added to plate-coated Tocilizumab (competitor: Tocilizumab)
Description: ELISA plates were washed once with wash buffer (PBS+0.05% v/v Tween-20, PBST) and then blocked with 200 μl/well blocking buffer (5% w/v non-fatty milk in PBST) overnight at 4° C.
The next day, the anti-IL6R antibodies of the disclosure or controls were diluted with biotin labeled human IL6R-Fc protein (SEQ ID NO: 43, 13.6 ng/ml in 2.5% w/v non-fatty milk in PBST), starting at 100 nM with a 5-fold serial dilution, and incubated at room temperature for 40 minutes. […] After incubation at 37° C. for 40 minutes, plates were washed 4 times using wash buffer. Then streptavidin conjugated HRP was added, and the plates were incubated for 40 minutes at 37° C. The plates were finally washed using wash buffer, and added with TMB. The reaction was stopped using 1M […], and the absorbance was read on a microplate reader using dual wavelength mode with 450 nm for TMB and 630 nm as the reference wavelength. The OD (450-630) values were plotted against antibody concentration. Data was analyzed using Graphpad Prism software and IC₅₀ values were reported.

[3] = target: T2, macaca IL6R-his protein (macaca mulatta); assay: indirect ELISA on plate-coated macaca IL6R-his
T2 chain: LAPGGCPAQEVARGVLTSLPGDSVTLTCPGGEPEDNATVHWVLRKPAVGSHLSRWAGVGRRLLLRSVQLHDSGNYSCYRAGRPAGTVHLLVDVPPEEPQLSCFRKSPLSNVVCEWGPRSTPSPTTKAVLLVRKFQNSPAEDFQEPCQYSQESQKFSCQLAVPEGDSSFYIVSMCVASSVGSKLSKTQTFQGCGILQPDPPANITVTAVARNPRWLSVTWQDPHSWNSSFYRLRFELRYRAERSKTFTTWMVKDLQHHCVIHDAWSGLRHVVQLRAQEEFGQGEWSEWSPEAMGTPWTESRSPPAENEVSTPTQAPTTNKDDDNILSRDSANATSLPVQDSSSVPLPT
Description: The anti-IL6R antibodies were tested for their cross-reaction with macaca IL6R. Briefly, 96-well micro plates were coated with 2 μg/ml macaca IL6R-his protein (in house made, amino acid sequence set forth in SEQ ID NO:45) in carbonate/bicarbonate buffer (pH 9.6), 100 μl/well, for 2 hours at 37° C. ELISA plates were washed once with wash buffer (PBS+0.05% v/v Tween-20, PBST) and then blocked with 200 μl/well blocking buffer (5% w/v non-fatty milk in PBST) for 2 hours at 37° C. Plates were washed 4 times and incubated with 100 μl/well serially diluted anti-IL6R antibodies of the disclosure or controls, starting at 66.67 nM with 5-fold serial dilution in PBST with 2.5% w/v non-fat milk, and incubated at 37° C. for 40 minutes. ELISA plates were washed 4 times again and incubated with 100 μl/well Peroxidase AffiniPure Goat Anti-Mouse IgG, Fcγ Fragment Specific (1:5000 dilution in PBST buffer, Jackson ImmunoResearch Laboratories, Inc., Cat #115-035-071) for 40 minutes at 37° C. After the final wash, plates were incubated with 100 μl/well TMB (InnoReagents). The reaction was stopped 3-10 minutes later at room temperature with 50 μl/well 1M H₂SO₄, and the absorbance of each well was read on a microplate reader using dual wavelength mode with 450 nm for TMB and 630 nm as the reference wavelength. Then the OD (450-630) values were plotted against antibody concentration. Data was analyzed using Graphpad Prism software and EC₅₀ values were reported.

[4] = target: T3, recombinant human IL6R-his (human, UniProt P08887 20-365); assay: SPR Biacore; purified antibody captured by anti-human IgG on CM5, antigen in flow
T3 construct: In house made; the entry includes the C-terminal His tag; also called human IL6R-his protein
T3 sequence: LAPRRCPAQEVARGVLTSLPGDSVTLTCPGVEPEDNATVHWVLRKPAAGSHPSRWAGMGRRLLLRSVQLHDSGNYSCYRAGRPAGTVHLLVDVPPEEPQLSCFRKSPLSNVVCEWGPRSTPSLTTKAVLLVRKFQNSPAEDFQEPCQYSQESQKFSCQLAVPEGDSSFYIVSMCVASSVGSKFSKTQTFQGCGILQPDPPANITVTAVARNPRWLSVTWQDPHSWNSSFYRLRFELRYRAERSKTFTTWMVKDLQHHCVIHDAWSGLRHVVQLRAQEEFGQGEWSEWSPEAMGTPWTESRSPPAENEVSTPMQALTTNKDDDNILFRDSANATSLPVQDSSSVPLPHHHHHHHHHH

[5] = target: T2, macaca IL6R-his protein; assay: as above

T1 sequence (chain, as listed by the source limits assumed): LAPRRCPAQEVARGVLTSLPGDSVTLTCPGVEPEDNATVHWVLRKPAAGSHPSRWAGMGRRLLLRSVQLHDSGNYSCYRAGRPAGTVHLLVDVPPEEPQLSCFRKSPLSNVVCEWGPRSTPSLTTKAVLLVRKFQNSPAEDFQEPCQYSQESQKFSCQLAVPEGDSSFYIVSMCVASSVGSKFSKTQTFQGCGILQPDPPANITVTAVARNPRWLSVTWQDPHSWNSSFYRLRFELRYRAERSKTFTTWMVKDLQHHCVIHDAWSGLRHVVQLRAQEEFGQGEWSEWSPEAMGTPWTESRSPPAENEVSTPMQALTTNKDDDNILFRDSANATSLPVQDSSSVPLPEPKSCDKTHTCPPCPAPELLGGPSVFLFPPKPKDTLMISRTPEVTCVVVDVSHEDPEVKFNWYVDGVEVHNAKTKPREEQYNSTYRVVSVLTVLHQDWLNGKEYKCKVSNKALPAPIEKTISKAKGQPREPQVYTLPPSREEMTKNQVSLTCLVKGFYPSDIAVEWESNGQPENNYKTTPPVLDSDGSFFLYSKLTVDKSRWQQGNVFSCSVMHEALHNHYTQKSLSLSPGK

EC50 [1]: 0.0553 nM
B1: mouse anti-IL6R monoclonal antibody 1H7 (antibody, V domains shown)
VH: QVQLQQPGTELVKPGASVKLSCKASGYTFTNYWMHWVKQRPGQGLDWIGEINPTNGRTNYNENFKSKATLTVDKSSSTAYMQLSSLTSEDSAVYYCARLNTHYVFDSWGQGTTLTLSS
VL: EIVLTQSPTTLAASPGEKITFTCSVSSSISSNYLHWYQQKPGFSPKLLISRTSTLASGVPARFSGSGSGTSYSLTIGTMEAEDVATYYCQQGSGIPFTFGSGTKLELK
notes: Mouse hybridoma mAb

IC50 [2]: 0.166 nM | EC50 [3]: 0.228 nM
B2: mouse anti-IL6R monoclonal antibody 1A3 (antibody, V domains shown)
VH: QVQLQQPGAELVKPGASVKLSCKASGYTFTSYWMHWVKQRPAQGLEWIGEINPSNGRTNFNEKFKTKATLTVDKSSNTAYMQLSSLTSEDSAVYSCLRLNTHYVFDYWGQGTTLTVSS
VL: B1 VL with L11M, F21I, V25A, T54N, A61T, E82G, L107I
notes: Mouse hybridoma mAb purified on Protein A

EC50 [1]: 0.0627 nM | IC50 [2]: 0.162 nM
B4: mouse anti-IL6R monoclonal antibody 1B5 (antibody, V domains shown)
VH: B1 VH with T9A, N31S, D46E, T54S, S107Y, L116V
VL: B1 VL with T10I, S50Y, T54N, L107I
notes: Mouse hybridoma mAb

More lines, now with the values behind:

B3: mouse anti-IL6R monoclonal antibody 1D4 (antibody, V domains shown)
VH: B1 VH with T9A, N31S, Q39V, D46E, N63D, D73N, K74S, S107Y, L116V
VL: B1 VL with T10I, S50Y, T54N, L107I
notes: Mouse hybridoma mAb
EC50 [3]: 0.175 nM

B5: Chimeric 1H7 (antibody, human IgG1, kappa, V domains shown)
VH: B1 VH
VL: EIVLTQSPTTLAASPGEKITFTCSVSSSISSNYLHWYQQKPGFSPKLLISRTSTLASGVPARFSGSGSGTSYSLTIGTMEAEDVATYYCQQGSGIPFTFGSGTKLELKR
notes: Mouse variable regions on human IgG1 / human kappa constant regions; also called chimeric antibody 1H7
Kd [4]: 0.85 nM | koff [4]: 0.000112 s⁻¹ | kon [4]: 132000 M⁻¹ s⁻¹ | Kd [5]: 1.18 nM | koff [5]: 0.000112 s⁻¹ | kon [5]: 94800 M⁻¹ s⁻¹ | EC50 [1]: 0.078 nM

B6: humanized antibody hu1H7-V5 (antibody, human IgG1, kappa, V domains shown)
VH: QVQLVQSGAEVKKPGASVKVSCKASGYTFTNYWMHWVRQAPGQGLEWIGEINPTNGRTNYNENFKSRVTLTVDTSTSTVYMELSSLRSEDTAVYYCARLNTHYVFDSWGQGTLVTVSS
VL: EIVLTQSPGTLSLSPGERATLSCSVSSSISSNYLHWYQQKPGLSPRLLISRTSTLASGIPARFSGSGSGTEYTLTISRMQSEDFAVYYCQQGSGIPFTFGQGTKLEIKR
notes: Human IgG1 / kappa
Kd [4]: 0.773 nM | koff [4]: 0.000112 s⁻¹ | kon [4]: 145000 M⁻¹ s⁻¹ | Kd [5]: 1.58 nM | koff [5]: 0.00012 s⁻¹ | kon [5]: 75800 M⁻¹ s⁻¹

B7: Tocilizumab (antibody, human IgG1, kappa, V domains shown)
VH: QVQLQESGPGLVRPSQTLSLTCTVSGYSITSDHAWSWVRQPPGRGLEWIGYISYSGITTYNPSLKSRVTMLRDTSKNQFSLRLSSVTAADTAVYYCARSLARTTAMDYWGQGSLVTVSS
VL: DIQMTQSPSSLSASVGDRVTITCRASQDISSYLNWYQQKPGKAPKLLIYYTSRLHSGVPSRFSGSGSGTDFTFTISSLQPEDIATYYCQQGNTLPYTFGQGTKVEIKR
notes: In house made; also called benchmark; Actemra
Kd [4]: 7.42 nM | Kd [5]: 9.16 nM | EC50 [1]: 0.191 nM | IC50 [2]: 1.41 nM | EC50 [3]: 0.0589 nM
